In the supplement of paper PMC11908140:

B1: library; numbered along this chain (parent)
chain: MRKPRAAVGSGHRKQAASQEGRQKHAKNNSQAKPSACDGLARQPEEVVLQASVSSYHLFRDVAEVTAFRGSLLSWYDQEKRDLPWRRRAEDEMDLDRRAYAVWVSEVMLQQTQVATVINYYTGWMQKWPTLQDLASASLEEVNQLWAGLGYYSRGRRLQEGARKVVEELGGHMPRTAETLQQLLPGVGRYTAGAIASIAFGQATGVVDGNVARVLCRVRAIGADPSSTLVSQQLWGLAQQLVDPARPGDFNQAAMELGATVCTPQRPLCSQCPVESLCRARQRVEQEQLLASGSLSGSPDVEECAPNTGQCHLCLPPSEPWDQTLGVVNFPRKASRKPPREESSATCVLEQPGALGAQILLVQRPNSGLLAGLWEFPSVTWEPSEQLQRKALLQELQRWAGPLPATHLRHLGEVVHTFSHIKLTYQVYGLALEGQTPVTTVPPGARWLTQEEFHTAAVSTAMKKVFRVYQGQQPGTCMGSKRSQVSSPCSRKKPRMGQQVLDNFFRSHISTDAHSLNSAAQ

Variants of: B1
Experiment: 8OG:A repair function score (normalized; synonymous = 0, nonsense = -1) (normalized log-likelihood score); higher = more repair activity (WT-like)
Conditions: with 8OG:A DNA repair reporter (GFP) in HEK-293 MUTYH KO cells
In short: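 After 72 h, viable mCherry+ cells were split into GFP+ (repair) and GFP− bins in three replicates per tile. These cells were MUTYH knockout HEK-293 cells holding lentiviral MUTYH cDNA NNN codon-scan libraries, kept in 10 pg/ml doxycycline and co-transfected with mCherry plus an 8OG:A GFP repair reporter. Sequencing of tile amplicons gave per-tile Rosace fitness scores, normalized into a repair function score anchored on synonymous and nonsense distributions. Synonymous medians were fixed at 0, nonsense at -1, and variants under 300 counts per million at the start were removed.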
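Note: cells sorted at 72 h after reporter transfection.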

8OG:A repair function score of substitutions, site by site:
V328: Q 0.0461 | R 0.0191
P339: V -0.0967 | L -0.113 | F -0.187 | C -0.157 | G -0.00599 | M -0.0671 | W -0.126 | N -0.17 | A -0.12 | Y -0.144 | D -0.41 | Q -0.0157 | E -0.374 | H 0.0544 | R -0.0864 | S -0.0594 | I -0.0749 | K -0.0247 | T -0.0529
R332: V -0.216 | Q -0.0904 | G -0.193 | Y -0.166 | C -0.154 | W 0.0485 | I -0.256 | T -0.246 | K -0.206 | A -0.0476 | L -0.109 | D -0.574 | N -0.315 | E -0.449 | F -0.0556 | H -0.163 | M -0.332 | P -0.191 | S -0.0346
S344: L 0.00107 | A 0.0466 | K 0.0408 | C 0.0475 | E -0.0813 | D -0.196 | H 0.0531 | F -0.0252 | I -0.0592
N329: F -0.345 | M -0.264 | C -0.102 | R -0.0858 | P -0.438 | H -0.276 | T -0.361 | I -0.365 | A -0.161 | V -0.246 | G -0.365 | Q -0.0134 | Y -0.104 | L -0.301 | E -0.365 | W -0.525 | S -0.235 | K -0.105 | D -0.288
E342: A -0.0199 | W -0.279 | R 0.0113 | C 0.0508 | V -0.0483 | P -0.298 | T -0.0198 | Q 0.0267 | F -0.0595 | I -0.00523 | H 0.0491 | M 0.0246 | L 0.0472 | K 0.0199 | Y -0.0601 | D 0.0832 | N 0.0275 | G -0.00875 | S -0.0341
K333: Y -0.0195 | V -0.0946 | R 0.0284 | C 0.053 | N -0.205 | P 0.038 | D -0.903 | L -0.227 | Q -0.166 | W -0.0431 | S -0.141 | G -0.131 | F -0.221 | M -0.0664 | T -0.137 | A 0.0254 | H -0.0128 | E -1.01 | I -0.0317
F330: W -0.017 | G -0.999 | S -0.765 | I -0.18 | H -0.37 | P -1.04 | M -0.174 | R -0.958 | V -0.145 | K -0.928 | T -0.478 | Q -0.638 | N -1.18 | C -0.248 | L -0.149 | D -1.15 | A -0.791 | Y -0.0696 | E -0.809
P338: C -0.0613 | S -0.0346 | E -0.133 | A -0.066 | W 0.053 | L -0.061 | V -0.0391 | K 0.0337 | M 0.0756 | N -0.066 | G -0.0299 | D -0.0378 | R 0.00053 | T -0.0578 | Q -0.00645 | H -0.0311 | Y -0.0269 | I -0.0572 | F -0.101
G326: V -0.514 | Y -0.435 | S -0.307 | T -0.298
K337: F -0.221 | T -0.131 | E -0.0878 | L -0.136 | Y -0.118 | M -0.112 | S -0.109 | N -0.132 | H -0.0482 | V -0.116 | A -0.0726 | C -0.225 | Q -0.0917 | I -0.106 | R 0.000179 | P 0.0544 | W -0.0779 | D -0.151 | G -0.0801
